T1: EsCas13d, nuclease-dead (Eubacterium siraeum, UniProt B0MS50, R295A;H300A;R849A;H854A)
T1 sequence: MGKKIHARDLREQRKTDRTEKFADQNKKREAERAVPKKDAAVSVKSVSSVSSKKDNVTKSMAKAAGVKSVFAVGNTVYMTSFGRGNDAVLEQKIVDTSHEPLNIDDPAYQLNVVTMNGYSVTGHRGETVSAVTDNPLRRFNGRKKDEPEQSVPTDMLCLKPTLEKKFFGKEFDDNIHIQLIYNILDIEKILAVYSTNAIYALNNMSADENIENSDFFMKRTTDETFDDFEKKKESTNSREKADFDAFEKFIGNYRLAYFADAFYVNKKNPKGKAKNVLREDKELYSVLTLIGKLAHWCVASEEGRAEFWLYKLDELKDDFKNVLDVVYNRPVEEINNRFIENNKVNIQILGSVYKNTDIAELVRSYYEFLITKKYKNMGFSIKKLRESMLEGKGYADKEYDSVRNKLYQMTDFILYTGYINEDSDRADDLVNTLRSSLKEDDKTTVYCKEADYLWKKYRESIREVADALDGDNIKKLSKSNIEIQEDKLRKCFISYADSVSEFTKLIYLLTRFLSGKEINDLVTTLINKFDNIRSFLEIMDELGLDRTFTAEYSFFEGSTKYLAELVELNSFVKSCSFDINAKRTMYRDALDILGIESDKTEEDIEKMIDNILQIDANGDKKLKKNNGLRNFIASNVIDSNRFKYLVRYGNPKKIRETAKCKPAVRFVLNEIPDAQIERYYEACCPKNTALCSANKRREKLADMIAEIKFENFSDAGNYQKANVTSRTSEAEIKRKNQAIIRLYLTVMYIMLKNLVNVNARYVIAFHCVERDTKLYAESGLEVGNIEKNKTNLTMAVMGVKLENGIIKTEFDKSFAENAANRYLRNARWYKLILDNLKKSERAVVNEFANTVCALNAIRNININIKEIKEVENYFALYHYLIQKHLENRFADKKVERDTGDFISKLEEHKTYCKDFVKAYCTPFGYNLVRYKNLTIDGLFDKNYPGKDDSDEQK

B1: target 1 insA 3' of 21,insU 3' of 5 (mixed)
RNA 1: CACCCGUGCAAAAAUGCAGGGGUCUAAAACUGAGCGGAUAACCUCUCUAUGG
RNA 2: GGGAAUGGAUCCACAUCUACGAAUUCGUACCAAUAGAGAGGUUAUCCGUCUCACCGAGAUCGGAAGAGCACACGU
B2: target 1 insA 3' of 15,insC 3' of 13 (mixed)
RNA 1: CACCCGUGCAAAAAUGCAGGGGUCUAAAACUGAGCGGAUAACCUCUCUAUGG
RNA 2: GGGAAUGGAUCCACAUCUACGAAUUCGUACCAUAGAGAAGCGUUAUCCGCUCACCGAGAUCGGAAGAGCACACGU
B3: target 1 G17A,C21A (mixed)
RNA 1: CACCCGUGCAAAAAUGCAGGGGUCUAAAACUGAGCGGAUAACCUCUCUAUGG
RNA 2: GGGAAUGGAUCCACAUCUACGAAUUCGUACAAUAAAGAGGUUAUCCGCUCACCGAGAUCGGAAGAGCACACGU
B4: target 1 insA 3' of 21,insU 3' of 18 (mixed)
RNA 1: CACCCGUGCAAAAAUGCAGGGGUCUAAAACUGAGCGGAUAACCUCUCUAUGG
RNA 2: GGGAAUGGAUCCACAUCUACGAAUUCGUACCAAUAUGAGAGGUUAUCCGCUCACCGAGAUCGGAAGAGCACACGU
B5: target 1 del11 (mixed)
RNA 1: CACCCGUGCAAAAAUGCAGGGGUCUAAAACUGAGCGGAUAACCUCUCUAUGG
RNA 2: GGGAAUGGAUCCACAUCUACGAAUUCGUACCAUAGAGAGGUAUCCGCUCACCGAGAUCGGAAGAGCACACGU
B6: target 1 insG 3' of 7,insC 3' of 1 (mixed)
RNA 1: CACCCGUGCAAAAAUGCAGGGGUCUAAAACUGAGCGGAUAACCUCUCUAUGG
RNA 2: GGGAAUGGAUCCACAUCUACGAAUUCGUACCAUAGAGAGGUUAUCGCGCUCACCCGAGAUCGGAAGAGCACACGU
B7: target 1 A16G,C22A (mixed)
RNA 1: CACCCGUGCAAAAAUGCAGGGGUCUAAAACUGAGCGGAUAACCUCUCUAUGG
RNA 2: GGGAAUGGAUCCACAUCUACGAAUUCGUAACAUAGGGAGGUUAUCCGCUCACCGAGAUCGGAAGAGCACACGU
B8: target 1 insU 3' of 20,insG 3' of 11 (mixed)
RNA 1: CACCCGUGCAAAAAUGCAGGGGUCUAAAACUGAGCGGAUAACCUCUCUAUGG
RNA 2: GGGAAUGGAUCCACAUCUACGAAUUCGUACCAUUAGAGAGGUGUAUCCGCUCACCGAGAUCGGAAGAGCACACGU
B9: target 1 U10A,A16C (mixed)
RNA 1: CACCCGUGCAAAAAUGCAGGGGUCUAAAACUGAGCGGAUAACCUCUCUAUGG
RNA 2: GGGAAUGGAUCCACAUCUACGAAUUCGUACCAUAGCGAGGUAAUCCGCUCACCGAGAUCGGAAGAGCACACGU
B10: target 1 del4,del9 (mixed)
RNA 1: CACCCGUGCAAAAAUGCAGGGGUCUAAAACUGAGCGGAUAACCUCUCUAUGG
RNA 2: GGGAAUGGAUCCACAUCUACGAAUUCGUACCAUAGAGAGGUUUCCGUCACCGAGAUCGGAAGAGCACACGU
B11: target 1 U3G,A9U (mixed)
RNA 1: CACCCGUGCAAAAAUGCAGGGGUCUAAAACUGAGCGGAUAACCUCUCUAUGG
RNA 2: GGGAAUGGAUCCACAUCUACGAAUUCGUACCAUAGAGAGGUUUUCCGCGCACCGAGAUCGGAAGAGCACACGU
B12: target 1 del3,del7 (mixed)
RNA 1: CACCCGUGCAAAAAUGCAGGGGUCUAAAACUGAGCGGAUAACCUCUCUAUGG
RNA 2: GGGAAUGGAUCCACAUCUACGAAUUCGUACCAUAGAGAGGUUAUCGCCACCGAGAUCGGAAGAGCACACGU
B13: target 1 insC 3' of 12,insG 3' of 8 (mixed)
RNA 1: CACCCGUGCAAAAAUGCAGGGGUCUAAAACUGAGCGGAUAACCUCUCUAUGG
RNA 2: GGGAAUGGAUCCACAUCUACGAAUUCGUACCAUAGAGAGGCUUAUGCCGCUCACCGAGAUCGGAAGAGCACACGU
B14: target 1 C4G,U11C (mixed)
RNA 1: CACCCGUGCAAAAAUGCAGGGGUCUAAAACUGAGCGGAUAACCUCUCUAUGG
RNA 2: GGGAAUGGAUCCACAUCUACGAAUUCGUACCAUAGAGAGGCUAUCCGGUCACCGAGAUCGGAAGAGCACACGU
B15: target 1 insC 3' of 20,insC 3' of 11 (mixed)
RNA 1: CACCCGUGCAAAAAUGCAGGGGUCUAAAACUGAGCGGAUAACCUCUCUAUGG
RNA 2: GGGAAUGGAUCCACAUCUACGAAUUCGUACCACUAGAGAGGUCUAUCCGCUCACCGAGAUCGGAAGAGCACACGU
B16: target 1 insA 3' of 19,insU 3' of 15 (mixed)
RNA 1: CACCCGUGCAAAAAUGCAGGGGUCUAAAACUGAGCGGAUAACCUCUCUAUGG
RNA 2: GGGAAUGGAUCCACAUCUACGAAUUCGUACCAUAAGAGUAGGUUAUCCGCUCACCGAGAUCGGAAGAGCACACGU
B17: target 1 insC 3' of 12 (mixed)
RNA 1: CACCCGUGCAAAAAUGCAGGGGUCUAAAACUGAGCGGAUAACCUCUCUAUGG
RNA 2: GGGAAUGGAUCCACAUCUACGAAUUCGUACCAUAGAGAGGCUUAUCCGCUCACCGAGAUCGGAAGAGCACACGU
B18: target 1 insC 3' of 11,insU 3' of 6 (mixed)
RNA 1: CACCCGUGCAAAAAUGCAGGGGUCUAAAACUGAGCGGAUAACCUCUCUAUGG
RNA 2: GGGAAUGGAUCCACAUCUACGAAUUCGUACCAUAGAGAGGUCUAUCCUGCUCACCGAGAUCGGAAGAGCACACGU
B19: target 1 insU 3' of 21,insG 3' of 9 (mixed)
RNA 1: CACCCGUGCAAAAAUGCAGGGGUCUAAAACUGAGCGGAUAACCUCUCUAUGG
RNA 2: GGGAAUGGAUCCACAUCUACGAAUUCGUACCUAUAGAGAGGUUAGUCCGCUCACCGAGAUCGGAAGAGCACACGU
B20: target 1 U10G,A14G (mixed)
RNA 1: CACCCGUGCAAAAAUGCAGGGGUCUAAAACUGAGCGGAUAACCUCUCUAUGG
RNA 2: GGGAAUGGAUCCACAUCUACGAAUUCGUACCAUAGAGGGGUGAUCCGCUCACCGAGAUCGGAAGAGCACACGU
B21: target 1 insU 3' of 17,insC 3' of 1 (mixed)
RNA 1: CACCCGUGCAAAAAUGCAGGGGUCUAAAACUGAGCGGAUAACCUCUCUAUGG
RNA 2: GGGAAUGGAUCCACAUCUACGAAUUCGUACCAUAGUAGAGGUUAUCCGCUCACCCGAGAUCGGAAGAGCACACGU
B22: target 1 insG 3' of 7,insA 3' of 2 (mixed)
RNA 1: CACCCGUGCAAAAAUGCAGGGGUCUAAAACUGAGCGGAUAACCUCUCUAUGG
RNA 2: GGGAAUGGAUCCACAUCUACGAAUUCGUACCAUAGAGAGGUUAUCGCGCUCAACCGAGAUCGGAAGAGCACACGU
B23: target 1 insU 3' of 17,insA 3' of 2 (mixed)
RNA 1: CACCCGUGCAAAAAUGCAGGGGUCUAAAACUGAGCGGAUAACCUCUCUAUGG
RNA 2: GGGAAUGGAUCCACAUCUACGAAUUCGUACCAUAGUAGAGGUUAUCCGCUCAACCGAGAUCGGAAGAGCACACGU
B24: target 1 insG 3' of 9,insU 3' of 4 (mixed)
RNA 1: CACCCGUGCAAAAAUGCAGGGGUCUAAAACUGAGCGGAUAACCUCUCUAUGG
RNA 2: GGGAAUGGAUCCACAUCUACGAAUUCGUACCAUAGAGAGGUUAGUCCGCUUCACCGAGAUCGGAAGAGCACACGU
B25: target 1 U3A,G5U (mixed)
RNA 1: CACCCGUGCAAAAAUGCAGGGGUCUAAAACUGAGCGGAUAACCUCUCUAUGG
RNA 2: GGGAAUGGAUCCACAUCUACGAAUUCGUACCAUAGAGAGGUUAUCCUCACACCGAGAUCGGAAGAGCACACGU
B26: target 1 insG 3' of 7,insG 3' of 1 (mixed)
RNA 1: CACCCGUGCAAAAAUGCAGGGGUCUAAAACUGAGCGGAUAACCUCUCUAUGG
RNA 2: GGGAAUGGAUCCACAUCUACGAAUUCGUACCAUAGAGAGGUUAUCGCGCUCAGCCGAGAUCGGAAGAGCACACGU
B27: target 1 insU 3' of 22,insU 3' of 12 (mixed)
RNA 1: CACCCGUGCAAAAAUGCAGGGGUCUAAAACUGAGCGGAUAACCUCUCUAUGG
RNA 2: GGGAAUGGAUCCACAUCUACGAAUUCGUACUCAUAGAGAGGUUUAUCCGCUCACCGAGAUCGGAAGAGCACACGU

The series deals with T1, EsCas13d, nuclease-dead. Description: crRNA (strand 1, pre-loaded); Mg2+; 40 mM Tris-HCl pH 7.5, 150 mM NaCl, 6 mM MgCl2, 1 mM DTT, 0.1% Tween-20, 0.2 mg/ml BSA; 25 C; 10 min per concentration, then washed. The following applies: tags: His6-TwinStrep-SUMO cleaved; N-terminal SNAP kept (SNAP-Surface 488); label: 3' end held by stalled T7 RNA polymerase.
For the molecule B1, binding was put at a Kd of 30 ± 5 nM.
As for B2, the figure is 16.4 ± 2.3 nM.
The figure for B3 is 56 ± 7 nM; for B4 it is 46 ± 7 nM; for B5 it is 15.9 ± 0.9 nM.
The figure for B6 is 7.6 ± 0.5 nM.
B7: binding was put at a Kd of 51 ± 10 nM. Against the preceding molecule, the Kd is about 6.7-fold higher.
B8 displayed a Kd of 51 ± 12 nM.
As for B9, the figure is 68 ± 10 nM; as for B10, 78 ± 15 nM.
The figure for B11 is 7.5 ± 0.7 nM.
As to B12, the Kd is 4.94 ± 0.21 nM.
B13 gave a Kd of 15 ± 0.6 nM.
As for B14, the figure is 9 ± 0.8 nM; as for B15, 11.2 ± 1.1 nM.
As for B16, the figure is 23.2 ± 2.6 nM; as for B17, 8.3 ± 0.5 nM; as for B18, 69 ± 8 nM.
The figure for B19 is 77 ± 19 nM; for B20 it is 23.3 ± 1.3 nM; for B21 it is 18 ± 2.4 nM.
As for B22, the Kd is 6.36 ± 0.31 nM.
The figure for B23 is 17.6 ± 1.8 nM; for B24 it is 12.2 ± 0.4 nM.
For B25, the affinity, expressed as Kd, was 14.4 ± 1 nM. This Kd and that of the molecule before are within 1.5-fold of each other.
For B26, the Kd worked out at 6.65 ± 0.35 nM.
The figure for B27 is 26.9 ± 1.6 nM.

The term Kd denotes the constant that tells how readily two partners part at equilibrium. Higher therefore signals a looser complex.

(Values after publication PMC10786891, “Massively parallel profiling of RNA-targeting CRISPR-Cas13d”.)
